How the values were obtained:
[1] = target: the molecule itself; assay: self-association; pseudonative SDS/PAGE, 12.5% acrylamide, sample not boiled
From the text: Since Kaede forms a tetramer, there may be cases where its expression pattern becomes abnormal when another protein is fused with Kaede. Thus, in Kaede, threonine (T) at position 158 was substituted with arginine (R), and alanine (A) at position 160 was substituted with glutamic acid (E), so as to produce a dimeric mutant. This mutant was named as Kaede 2. The amino acid sequence and nucleotide sequence of Kaede 2 are shown in SEQ ID NOS: 7 and 8 in the sequence listing, respectively. In electrophoresis on 12.5% acrylamide gel where sample was not boiled (Pseudonative SDS/PAGE), a band of Kaede 2 was detected as a molecule with a lower molecular weight than that of Kaede (FIG. 8).

[2] = target: the molecule itself; assay: self-association; pseudonative SDS/PAGE, 12.5% acrylamide, not boiled
From the text: (§1) In Momiji, asparagine (N) at position 11 was substituted with arginine (R), leucine (L) at position 29 was substituted with threonine (T), tyrosine (Y) at position 122 was substituted with glutamic acid (E), lysine (K) at position 136 was substituted with asparagine (N), glutamine (Q) at position 138 was substituted with leucine (L), glutamine (Q) at position 142 was substituted with proline (P), asparagine (N) at position 159 was substituted with aspartic acid (D), alanine (A) at position 161 was substituted with serine (S), tyrosine (Y) at position 190 was substituted with threonine (T), phenylalanine (F) at position 192 was substituted with tyrosine (Y), cysteine (C) at position 196 was substituted with serine (S), and 6 amino acids from position 224 to position 229 were deleted. By such operations, the above Momiji became a dimer (FIG. 24). This dimer had fluorescence properties that ultraviolet ray-irradiation-dependently change from green to red, which were equivalent to those of Momiji (FIG. 25). This mutant was named as d16. The amino acid sequence and nucleotide sequence of d16 are shown in SEQ ID NOS: 15 and 16, respectively.

[3] = target: the molecule itself; assay: self-association; pseudonative SDS/PAGE, 12.5% acrylamide
From the text: as §1

[4] = target: the molecule itself; assay: pseudonative SDS/PAGE, 12.5% acrylamide gel (self-association)

B1: Kaede (fluorescent protein derived from Trachyphyllia geoffroyi) (other)
chain: MSLIKPEMKIKLLMEGNVNGHQFVIEGDGKGHPFEGKQSMDLVVKEGAPLPFAYDILTTAFHYGNRVFAKYPDHIPDYFKQSFPKGFSWERSLMFEDGGVCIATNDITLKGDTFFNKVRFDGVNFPPNGPVMQKKTLKWEASTEKMYLRDGVLTGDITMALLLKGDVHYRCDFRTTYKSRQEGVKLPGYHFVDHCISILRHDKDYNEVKLYEHAVAHSGLPDNVK
notes: also called first fluorescent protein of the present invention; not shown: N-terminal His-tag from the pRSETB vector
binding result [1]: binds

B2: Kaede 2 (dimeric mutant of Kaede, T158R and A160E) (other)
chain: MSLIKPEMKIKLLMEGNVNGHQFVIEGDGKGHPFEGKQSMDLVVKEGAPLPFAYDILTTAFHYGNRVFAKYPDHIPDYFKQSFPKGFSWERSLMFEDGGVCIATNDITLKGDTFFNKVRFDGVNFPPNGPVMQKKTLKWEASTEKMYLRDGVLTGDIRMELLLKGDVHYRCDFRTTYKSRQEGVKLPGYHFVDHCISILRHDKDYNEVKLYEHAVAHSGLPDNVK
notes: No tag or expression construct is stated for the gel sample
binding result [1]: binds

B3: Momiji (fluorescent protein derived from Scolymia vitiensis) (other)
chain: MVSVIKDEMKVNLRMEGSVNGHDFVIDGLGSGKPKEGTQTIELKVVKGGPLPFAYDILTTAFHYGNRVFAKYPKDIPNYFEQSFPEGYSWERSMIFEDGGICIARNDITMDGGTFYNKVRFYGVNFPPNGPVMQKKTQKWEQSTEKMYARDGVLTGDINMALLLKGGGHYRCDFRTTFKAKEKGVKLPGYHFIDHCIEILSHRNDYNNVTLFEHAVARSGLQDKEKQQQ
notes: Found to be a tetramer by pseudonative SDS/PAGE; also called WT (Momiji); wild type (Momiji); not shown: His-tag from the pET28 vector, said to be at the N-terminus
binding result [2]: binds

B4: d16 (dimeric mutant of Momiji) (other)
chain: MVSVIKDEMKVRLRMEGSVNGHDFVIDGTGSGKPKEGTQTIELKVVKGGPLPFAYDILTTAFHYGNRVFAKYPKDIPNYFEQSFPEGYSWERSMIFEDGGICIARNDITMDGGTFYNKVRFEGVNFPPNGPVMQKNTLKWEPSTEKMYARDGVLTGDIDMSLLLKGGGHYRCDFRTTFKAKEKGVKLPGTHYIDHSIEILSHRNDYNNVTLFEHAVARSGLQD
notes: No tag is stated for the gel sample
binding result [3]: binds

B5: m16 (monomeric mutant of Momiji) (other)
chain: MVSVIKDEMKVRLRMEGSVNGHDFVIDGTGSGKPKEGTQTIELKVVKGGPLPFAYDILTTAFHYGNRVFAKYPKDIPNYFEQSFPEGYSWERSMTFEDGGVCTARNDITMDGGTFYNKVRFEGTNFPPNGPVMQKKTLKWEPSTEKMYARDGVLTGDIDMSLLLKGGGHYRCDMRTTFKAKEKGVKLPGTHYIDHSIEILSHRNDYNNVTLYEHAVARSGLQD
notes: as for B4
binding result [4]: no binding

Reference: US20060160990A1 (RIKEN, published 2006)
